Source: patent US6630345B2 (New York University, dated 2003)

Target: recombinant full-length calcium-independent receptor of α-latrotoxin (CIRL) expressed in COS cells (rat)
Sequence (O88917 other isoform, or with tags, fused parts or gaps limits assumed): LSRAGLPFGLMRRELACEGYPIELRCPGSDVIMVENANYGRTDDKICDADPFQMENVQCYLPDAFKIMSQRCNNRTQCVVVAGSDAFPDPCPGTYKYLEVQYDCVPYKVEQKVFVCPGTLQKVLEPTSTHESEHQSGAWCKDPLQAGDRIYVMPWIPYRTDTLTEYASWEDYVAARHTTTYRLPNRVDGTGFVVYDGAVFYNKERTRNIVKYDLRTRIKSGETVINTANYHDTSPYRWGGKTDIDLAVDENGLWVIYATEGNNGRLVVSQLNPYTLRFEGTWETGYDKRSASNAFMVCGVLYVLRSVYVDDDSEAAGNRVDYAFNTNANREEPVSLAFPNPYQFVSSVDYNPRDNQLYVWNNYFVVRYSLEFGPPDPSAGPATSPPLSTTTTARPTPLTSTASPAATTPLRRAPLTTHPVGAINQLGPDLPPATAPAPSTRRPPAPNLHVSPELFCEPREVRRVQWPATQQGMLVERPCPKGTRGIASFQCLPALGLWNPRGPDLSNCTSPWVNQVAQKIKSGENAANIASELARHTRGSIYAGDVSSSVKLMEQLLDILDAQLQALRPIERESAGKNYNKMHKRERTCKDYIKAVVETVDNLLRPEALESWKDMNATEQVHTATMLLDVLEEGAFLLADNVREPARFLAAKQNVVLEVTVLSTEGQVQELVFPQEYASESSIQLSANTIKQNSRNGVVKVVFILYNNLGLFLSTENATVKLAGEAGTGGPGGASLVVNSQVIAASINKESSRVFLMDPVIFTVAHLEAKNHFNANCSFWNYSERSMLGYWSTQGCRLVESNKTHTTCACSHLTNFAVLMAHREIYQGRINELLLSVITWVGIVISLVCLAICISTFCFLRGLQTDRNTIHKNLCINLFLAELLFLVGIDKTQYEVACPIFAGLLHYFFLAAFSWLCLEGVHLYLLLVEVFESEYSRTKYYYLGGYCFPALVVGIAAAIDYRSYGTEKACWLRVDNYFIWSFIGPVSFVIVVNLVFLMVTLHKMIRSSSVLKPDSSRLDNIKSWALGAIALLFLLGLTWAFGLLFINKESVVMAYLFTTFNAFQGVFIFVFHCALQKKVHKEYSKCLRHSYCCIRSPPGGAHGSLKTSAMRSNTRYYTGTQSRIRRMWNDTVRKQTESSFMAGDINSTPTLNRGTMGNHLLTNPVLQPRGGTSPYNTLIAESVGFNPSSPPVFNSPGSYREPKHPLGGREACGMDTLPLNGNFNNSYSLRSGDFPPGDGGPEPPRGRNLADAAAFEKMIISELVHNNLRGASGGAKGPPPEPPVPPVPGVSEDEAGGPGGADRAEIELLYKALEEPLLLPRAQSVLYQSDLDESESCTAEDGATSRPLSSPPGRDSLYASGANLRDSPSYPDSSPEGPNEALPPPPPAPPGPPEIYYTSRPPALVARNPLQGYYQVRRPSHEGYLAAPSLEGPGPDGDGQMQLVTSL

B1: α-latrotoxin (ligand)
chain: EGEDLTLEEKAEICSELELQQKYVDIASNIIGDLSSLPIAGKIAGTIAAAAMTATHVASGRLDIEQTLLGCSDLPFDQIKEVLENRFNEIDRKLDSHSAALEEITKLVEKSISVVEKTRKQMNKRFDEVMKSIQDAKVSPIISKINNFARYFDTEKERIRGLKLNDYILKLEEPNGILLHFKESRTPTDDSLQAPLFSIIEEGYAVPKSIDDELAFKVLYALLYGTQTYVSVMFFLLEQYSFLANHYYEKGYLEKYDEYFNSLNNVFLDFKSSLVGTGTSNNEGLLDRVLQVLMTVKNSEFLGLEKNGVDEMLNEKINLFNKIKEEIEGKQKMTLSETPENFAQISFDKDITTPIGDWRDGREVRYAVQYASETLFSKISHWSDPVSVREKACPTLRMPVDQTRRNVLVFRKFDSSKPQLVGEITPYLSNFIDIDRDLYNAASNPDSAVGFKEFTKLNYDGANIRATFDHGRTVFHAAAKSGNDKIMFGLTFLAKSTELNQPDKKGYTPIHVAADSGNAGIVNLLIQRGVSINSKTYHFLQTPLHLAAQRGFVTTFQRLMESPEININERDKDGFTPLHYAIRGGERILEAFLNQISIDVNAKSNTGLTPFHLAIIKNDWPVASTLLGSKKVDINAVDENNITALHYAAILGYLETTKQLINLKEINANVVSSPGLLSALHYAILYKHDDVASFLMRSSNVNVNLKALGGITPLHLAVIQGRKQILSLMFDIGVNIEQKTDEKYTPLHLAAMSKYPELIQILLDQGSNFEAKTNSGATPLHLATFKGKSQAALILLNNEVNWRDTDENGQMPIHGAAMTGLLDVAQAIISIDATVVDIEDKNSDTPLNLAAQNSHIDVIKYFIDQGADINTRNKKGLAPLLAFSKKGNLDMVKYLFDKNANVYIADNDGMNFFYYAVQNGHLNIVKYAMSEKDKFEWSNTDNNRRDECPNEECAISHFAVCDAVQFDRIEIVKYFVGTLGNFAICGPLHQAARYGHLDIVKYLVEEEFLSVDGSKTDTPLCYASENGHFTVVQYLVSNGAKVNHDCGNGMTAIDKAITKNHLQVVQFLAANGVDFRRKNSRGTTPFLTAVAENALHIAEYLIREKRQDININEQNVDKDTALHLAVYYKNLQMIKLLIKYGIDVTIRNAYDKTALDIAIDAKFSNIVEYLKTKSGKFRR
modifications: radioactively labeled with 125I by chloramine T procedure in the binding and immunoprecipitation assays; coupled to Sepharose in the affinity experiments
  Kd: 0.16 nM
